What was measured:
[1] = biological target: T1, peptide 1 of the overlapping 15mer peptides covering the p95HER2 extracellular domain (Homo sapiens, UniProt P04626); experiment: peptide or protein array; peptides immobilised on a cellulose membrane (PepSpots); Oslo-2 mAb 5 μg/mL in 5% nonfat skim milk, three hours at RT; HRP-conjugated secondary antibody, chemiluminescence; details: both partners purified
T1 construct: first 15mer of the p95HER2 extracellular domain, containing MPIW; source: synthetic peptide, immobilised on a cellulose membrane (PepSpots, JPT Peptide Technologies)
T1 chain: MPIWKFPDEEGACQP

[2] = biological target: T2, N-terminally truncated 20 mer without methionine-611 (612-622) (Homo sapiens); experiment: as above; details: both partners purified
T2 construct: source: synthetic peptide, immobilised on a cellulose membrane (PepSpots, JPT Peptide Technologies)
T2 chain: PIWKFPDEEGA

[3] = biological target: T3, 20 mer epitope peptide GVKPDLSYMPIWKFPDEEGA (region 603-622 in HER2) (Homo sapiens); experiment: as above; details: both partners purified
T3 construct: region 603-622 in HER2, spanning the N terminus of the p95HER2 extracellular domain; source: synthetic peptide, immobilised on a cellulose membrane (PepSpots, JPT Peptide Technologies)
T3 chain: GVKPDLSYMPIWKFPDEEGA

[4] = biological target: T4, N-terminally truncated 20 mer without isoleucine-613 (614-622) (Homo sapiens); experiment: as above; details: both partners purified
T4 construct: source: synthetic peptide, immobilised on a cellulose membrane (PepSpots, JPT Peptide Technologies)
T4 chain: WKFPDEEGA

[5] = biological target: T5, N-terminally truncated 20 mer without proline-612 (613-622) (Homo sapiens); experiment: as above; details: both partners purified
T5 construct: source: synthetic peptide, immobilised on a cellulose membrane (PepSpots, JPT Peptide Technologies)
T5 chain: IWKFPDEEGA

[6] = biological target: T6, extracellular domain of p95HER2 peptide with a poly-histidine-tag in the C-terminus (Homo sapiens); experiment: SPR; Oslo-2 mAb (5 μg/mL) covalently immobilised by amine coupling on a CM5 chip, anti-HER2 (cytopla-HER2) mAb on the reference flow cell; p95HER2 ECD peptide as analyte, 0.6 to 2500 nM; HBS-EP+ buffer; 25 °C; Biacore T200; global fit to the 1:1 bimolecular interaction model; details: both partners purified
T6 construct: printed with HHHHHH at the C-terminus; also called p95HER2 ECD peptide; source: synthetic peptide (GenScript); not shown: His6, C-terminal, kept

[7] = biological target: T7, full-length HER2 in transduced MDA-MB-468 cells (Homo sapiens, UniProt P04626); experiment: flow cytometry on cells; Oslo-2 mAb 10 μg/mL on cell lines, 30 min at 4 °C in FACS buffer (PBS pH 7, 2% FBS, 2 mM EDTA), labelled secondary antibody; details: one partner purified
T7 construct: full-length HER2 expressed from the plasmid pBABEpuro-ERBB2; source: cultured cells and subcutaneous xenograft tumours

[8] = biological target: T8, 611-CTF-p95HER2 (611-carboxy terminal fragment of HER2) on p95HER2-T47D cells (Homo sapiens, UniProt P04626); experiment: as above; details: one partner purified
T8 construct: source: p95HER2-T47D cells (C2069, Crown Bioscience); cultured cells and orthotopic xenograft tumours in NSG mice

[9] = biological target: T9, full-length HER2 (endogenous) (Homo sapiens, UniProt P04626); experiment: as above; details: one partner purified
T9 construct: human epidermal growth factor receptor 2 (HER2), full-length, on cells and in tissue sections; also called HER2 full-length; full-length HER2 receptor; source: endogenous, SK-BR-3 and A549 cells; endogenous, human breast carcinoma biopsy and normal human tissues

[10] = biological target: T8, 611-CTF-p95HER2 (611-carboxy terminal …); experiment: flow cytometry on cells; monoclonal hybridoma supernatant (1:50 dilution) on cell lines, 30 min at 4 °C in FACS buffer, goat anti-rat-PE; details: partners not purified

| Binder | binding result [1] | binding result [2] | binding result [3] | binding result [4] | binding result [5] | Kd [6] [nM] | binding result [7] | binding result [8] | binding result [9] | binding result [10] |
| --- | --- | --- | --- | --- | --- | --- | --- | --- | --- | --- |
| Oslo-2 mAb (antibody, V domains shown, variable heavy domain; variable light domain; On the peptide membrane Oslo-2 was detected with a horse anti-mouse secondary antibody, so the constant regions may be mouse (surmise); also called Oslo-2 Ab; Oslo-2 (p95HER2) antibody) VH: EVQILETGGGLVKPGGSLRLSCATSGFNFNDYFMNWVRQAPGKGLEWIAQIRNKNYNYATYFAESLEGRFTISRDDSKSSVYLQVNSLRAEDTALYYCTELRYDYWGQGVMVTVSS VL: DIVMTQSPFSLAVSEGEMVTINCKSSQSLLSSGNQKNNLAWYQQKPGQSPKLLIYYASTRQSGVPDRFIGSGSGTDFTLTISDVQAEDLADYYCLQHYSSPYTFGAGTKLELK | binds | binds | binds | binds | binds | 2 | no binding (tested: 10 μg/mL) | binds | no binding (tested: 10 μg/mL) | – |
| mClone 1 (monoclonal hybridoma culture supernatant) (antibody, V domains shown, constant region of the rat hybridoma antibody; source: rat hybridoma (B-cells fused with Ag8 myeloma cells), sub-cloned by limited dilution, culture supernatant) VH: EVQILETGGGLVKPGGSLRLSCATSGFNFNDYFMNWVRQAPGKGLEWIAQIRNKNYNYATYFAESLEGRFTISRDDSKSSVYLQVNSLRAEDTALYYCTELRYDYWGQGVMVTVSS VL: DIVMTQSPFSLAVSEGEMVTINCKSSQSLLSSGNQKNNLAWYQQKPGQSPKLLIYYASTRQSGVPDRFIGSGSGTDFTLTISDVQAEDLADYYCLQHYSSPYTFGAGTKLELK | – | – | – | – | – | – | – | – | – | binds |

Source: publication PMC9563779 (Cancers, 2022)
